Here are results for 1 substance from paper PMC11306785.

For the test, the target named is FLAG-PPM1G-YLmut (human) (UniProt O15355). In words: co-IP; anti-FLAG affinity gel (25 μl), 1-2 mg lysate of transiently transfected HEK293H cells, 1 h at 4°C, lysis buffer 50 mM HEPES-KOH pH 7.5, 50 mM KCl, 2 mM MgCl2, 2 mM EGTA, 5% glycerol, 0.5% NP40; partners detected by Western blot; in Figure 3B cells treated with DMSO or PP242 for 2 h.
Sequence of UniProt O15355 (O15355 whole entry Y85A/L90A): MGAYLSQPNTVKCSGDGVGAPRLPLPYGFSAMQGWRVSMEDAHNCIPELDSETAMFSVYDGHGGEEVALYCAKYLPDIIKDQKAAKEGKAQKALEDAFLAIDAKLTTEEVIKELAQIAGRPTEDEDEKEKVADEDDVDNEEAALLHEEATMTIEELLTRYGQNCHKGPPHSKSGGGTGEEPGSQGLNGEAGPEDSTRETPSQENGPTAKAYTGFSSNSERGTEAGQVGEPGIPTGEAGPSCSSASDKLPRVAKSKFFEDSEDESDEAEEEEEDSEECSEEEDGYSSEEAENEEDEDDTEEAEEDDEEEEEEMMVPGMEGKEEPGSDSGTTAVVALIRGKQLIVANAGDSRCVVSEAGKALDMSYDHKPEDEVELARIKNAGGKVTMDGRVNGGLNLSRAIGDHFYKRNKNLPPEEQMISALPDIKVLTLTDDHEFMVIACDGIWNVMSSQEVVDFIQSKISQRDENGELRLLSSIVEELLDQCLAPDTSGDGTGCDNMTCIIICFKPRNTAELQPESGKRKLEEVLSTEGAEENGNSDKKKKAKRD

In turn, “endogenous eIF4E (from UniProt P06730 1-217) (natural protein)” had a percent decrease of binding against wild-type PPM1G of 80%.
